Source: US20220406376A1 (MacroGenics, published 2022)
Residue numbers refer to the chain shown, from its start.

T1: 5T4 on the surface of target cells (JIMT-1, SKOV-3) (UniProt Q13641 32-420, limits assumed)
T1 construct: whole, on cells
T1 sequence (looked up): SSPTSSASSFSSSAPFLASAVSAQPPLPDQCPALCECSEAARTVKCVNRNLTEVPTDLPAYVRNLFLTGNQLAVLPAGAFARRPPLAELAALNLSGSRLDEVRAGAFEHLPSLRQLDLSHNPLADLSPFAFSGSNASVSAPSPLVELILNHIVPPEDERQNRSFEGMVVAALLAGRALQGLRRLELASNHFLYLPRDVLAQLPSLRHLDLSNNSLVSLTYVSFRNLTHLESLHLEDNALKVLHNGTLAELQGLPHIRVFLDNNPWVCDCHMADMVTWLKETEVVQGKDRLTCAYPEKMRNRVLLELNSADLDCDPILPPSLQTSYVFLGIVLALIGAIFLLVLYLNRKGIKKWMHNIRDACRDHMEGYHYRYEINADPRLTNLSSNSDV

B1: TRIDENT-1 (bispecific antibody, human IgG1, kappa, L234A L235A)
chain 1: DIQMTQSPSSLSASVGDRVTITCRPSQDISNYLNWYQQKPDKTVKLLIYYTSRLRSGVPSRFSGSGSGTDFTFTISSLQPEDIATYFCQQGDTLPYTFGQGTKLEIKGGGSGGGGQVQLVQSGAEVKKPGASVKVSCKASGYTFTSYWINWVKQAPGQGLEWIGNIYPSDSYTNYNQKFKDKATITADKSTSTAYMELSSLRSEDTAVYYCTRDYGSAYSMSTWGQGTTVTVSSASTKGEVAACEKEVAALEKEVAALEKEVAALEKGGGDKTHTCPPCPAPEAAGGPSVFLFPPKPKDTLMISRTPEVTCVVVDVSHEDPEVKFNWYVDGVEVHNAKTKPREEQYNSTYRVVSVLTVLHQDWLNGKEYKCKVSNKALPAPIEKTISKAKGQPREPQVYTLPPSREEMTKNQVSLWCLVKGFYPSDIAVEWESNGQPENNYKTTPPVLDSDGSFFLYSKLTVDKSRWQQGNVFSCSVMHEALHNHYTQKSLSLSPGK
chain 2: DIQMTQSPSSLSASVGDRVTITCRPSQDISNYLNWYQQKPDKTVKLLIYYTSRLRSGVPSRFSGSGSGTDFTFTISSLQPEDIATYFCQQGDTLPYTFGQGTKLEIKGGGSGGGGQVQLVQSGAEVKKPGASVKVSCKASGYTFTSYWINWVKQAPGQGLEWIGNIYPSDSYTNYNQKFKDKATITADKSTSTAYMELSSLRSEDTAVYYCTRDYGSAYSMSTWGQGTTVTVSSASTKGKVAACKEKVAALKEKVAALKEKVAALKE
heavy: QVTLRESGPALVKPTQTLTLTCTFSGFSLSTSGMSVGWIRQPPGKALEWLADIWWDDKKDYNPSLKSRLTISKDTSKNQVVLKVTNMDPADTATYYCARSMITNWYFDVWGAGTTVTVSSASTKGPSVFPLAPSSKSTSGGTAALGCLVKDYFPEPVTVSWNSGALTSGVHTFPAVLQSSGLYSLSSVVTVPSSSLGTQTYICNVNHKPSNTKVDKRVEPKSCDKTHTCPPCPAPEAAGGPSVFLFPPKPKDTLMISRTPEVTCVVVDVSHEDPEVKFNWYVDGVEVHNAKTKPREEQYNSTYRVVSVLTVLHQDWLNGKEYKCKVSNKALPAPIEKTISKAKGQPREPQVYTLPPSREEMTKNQVSLSCAVKGFYPSDIAVEWESNGQPENNYKTTPPVLDSDGSFFLVSKLTVDKSRWQQGNVFSCSVMHEALHNRYTQKSLSLSPGK
light: DIQMTQSPSTLSASVGDRVTITCRASQSVGYMHWYQQKPGKAPKLLIYDTSKLASGVPSRFSGSGSGTEFTLTISSLQPDDFATYYCFQGSGYPFTFGGGTKLEIKRTVAAPSVFIFPPSDEQLKSGTASVVCLLNNFYPREAKVQWKVDNALQSGNSQESVTEQDSKDSTYSLSSTLTLSKADYEKHKVYACEVTHQGLSSPVTKSFNRGEC
notes: also called CD137×CD137×RSV control molecule; CD137×RSV control molecule
B2: TRIDENT-4 (bispecific antibody, human IgG1, kappa, L234A L235A)
chain 1: B1 chain 1 with R24Q, P25A, S52G, L54A, K153R
chain 2: B1 chain 2 with R24Q, P25A, S52G, L54A, K153R
heavy: B1 heavy
light: B1 light

Experiments:
[1] = biological target: T1, 5T4 on the surface of target cells …; assay: flow cytometry on JIMT-1 (5T4 hi) cells, anti-hFc APC MFI
[2] = biological target: T2, CD137 on the surface of cells (activated human T cells; engineered CHO cells) (human, UniProt Q07011 24-255); assay: flow cytometry on activated CD8+ T cells (donor D59788, CD8 FITC), anti-hFc APC MFI
T2 construct: whole, on cells; also called human CD137; cell surface expressed CD137

[3] = biological target: T2, CD137 on the surface of cells …; assay: flow cytometry on activated pan T cells (donor D46433, CD8 PE), anti-hFc APC MFI
[4] = biological target: T3, HER2/neu on the surface of target cells (N87, JIMT-1, MCF-7, MDA-MB231) (UniProt P04626 23-1255, limits assumed); assay: flow cytometry on N87 cells, anti-hFc APC MFI
T3 construct: whole, on cells

[5] = biological target: T2, CD137 on the surface of cells …; assay: flow cytometry on activated pan T cells (donor D46433, CD8 PE), anti-hFc APC MFI; remark: listed apart in the source

T2 sequence (Q07011 24-255, change not shown): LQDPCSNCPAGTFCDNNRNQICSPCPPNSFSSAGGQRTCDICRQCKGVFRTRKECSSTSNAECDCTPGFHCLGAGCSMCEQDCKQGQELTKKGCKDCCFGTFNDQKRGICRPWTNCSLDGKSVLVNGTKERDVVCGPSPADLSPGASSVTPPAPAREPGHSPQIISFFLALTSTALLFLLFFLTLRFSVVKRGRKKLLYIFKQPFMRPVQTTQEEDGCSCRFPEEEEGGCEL

Binder	binding result [1]	EC50 (read off the curve) [2] [ng/mL]	EC50 (read off the curve) [3] [pM]	binding result [4]	EC50 (read off the curve) [5] [pM]
B1	no binding (tested: 10 ug/mL)	~7	~30	no binding (tested: about 60 nM (last point))	~30
B2	no binding (tested: 10 ug/mL)	~7			
